# Molecular target: Cy5-S15(T79C), 30S ribosomal protein S15 (Escherichia coli, UniProt P0ADZ4 1-89, T79C)
# Test: single-molecule FRET (ZMW); pre-folded; >80% of molecules bind stably; read-out is H20-H22 closure, S15 label in this assay not stated; 50 mM Tris pH 7.5, 14 mM MgCl2, 20 mM NaCl, 150 mM KCl, 0.04 mM EDTA, 40 ug/ml BSA, 0.01% Triton X-100, 2 mM spermidine, 1 mM putrescine; 20 C unless stated; 0.
binder,measurement,value
85 nt minimal 3-way junction (p0099A/B/C) (structured_RNA) RNA 1: GGCGCACGCAGGCGGUUUGCCG RNA 2: CGGCAAGCUUGAGUCUCGUAGAGGGGGGU RNA 3: GCCCCCUGGACGAAGACUGACGCUCAGGUGCGCC,binding result,binds

# — PMC6269517
